{
  "source": "patent US20110250284A1",
  "about": "“Nanoparticles for Use as Synthetic Platelets and Therapeutic Agent Delivery Vehicles” (priority 2008, published 2011)",
  "system": "NSCs",
  "assay": "NSC behavior cultured near hydrogels with CNTF delivery component",
  "assay_type": "cell-based",
  "conditions": "seven days",
  "experimental": "NSCs were positive for green fluorescent protein (GFP) and were maintained in high glucose DMEM/F12 (1:1) supplemented with 20 ng/mL mouse epidermal growth factor (EGF), N-2, B-27, penicillin/streptomycin, and L-glutamine.\nTo test the response of NSCs cultured near but not directly on or within hydrogels with a CNTF delivery component, NSCs were seeded as neurospheres in chamber slides at a concentration of 5×10^5 cells/mL. A hydrogel containing acrylated nanoparticles encapsulating an estimated 10 ng of CNTF was added to the culture medium. In other experiments a hydrogel containing either blank (BSA-only) nanoparticles, no nanoparticles, or unencapsulated CNTF at 10 ng/mL was added, and no hydrogel was added in the negative control. Throughout the seven days of the experiment, the migration of NSCs out of the neurospheres was measured using the fluorescence of the GFP NSCs. At the end of seven days, all hydrogels were removed. Cells were fixed for analysis in 10% formalin for 1 hour and rinsed in 1× PBS. Differentiation was quantified by immunocytochemistry as described below.\nSamples were blocked (3% normal goat serum, 5% BSA, 0.3% TritonX-100) for 1 hour, then rinsed and incubated with primary antibodies against mouse β-III-tubulin (B3T; Promega; 1:1000), mouse nestin (BD Biosciences; 1:200), rabbit glial fibrillary acidic protein (GFAP; Sigma; 1:160), rabbit oligodendrocyte transcription factor 1 (Olig1; Chemicon; 1:200), or caspase-3 (Sigma, 1:10) for 2 hours. They were then rinsed and incubated with species-specific Alexa Fluor 647 secondary antibodies (Molecular Probes; 1:200) for 1 hour, and rinsed again. Cells in chamber slides were also stained with DAPI (1:35000) for 5 minutes, rinsed again, and stored in 1× PBS at 4° C. […]\nThe slides were viewed using a Zeiss Axiovert 200 microscope with a Zeiss Mrc camera, and images were captured through Axiovert 4.0 software. Expression of each marker was quantified by the ratio of the area of fluorescence for each marker to the area of fluorescence for the GFP labeling. Results are expressed as mean±coefficient of variation.",
  "data": [
    {"molecule": "CNTF: Recombinant human ciliary neurotrophic factor with BSA carrier (R&D Systems) (protein, UniProt P26441 1-200, looked up, BSA carrier) Ciliary neurotrophic factor: MAFTEHSPLTPHRRDLCSRSIWLARKIRSDLTALTESYVKHQGLNKNINLDSADGMPVASTDQWSELTEAERLQENLQAYRTFHVLLARLLEDQQVHFTPTEGDFHQAIHTLLLQVAAFAYQIEELMILLEYKIPRNEADGMPINVGDGGLFEKKLWGLKVLQELSQWTVRSIHDLRFISSHQTGIPARGSHYIANNKKM", "values": [
      {"measurement": "migration of NSCs out of neurospheres", "setting": "hydrogel added to culture medium", "value": "increased migration"},
      {"measurement": "GFAP expression", "setting": "immunocytochemistry", "value": "upregulation of GFAP"},
      {"measurement": "nestin expression", "setting": "immunocytochemistry", "value": "downregulation of nestin"}
    ]}
  ]
}
